B1: KCNA4 (parent)
chain: YQSGGRLKRPVNVPFDIFTEEVKF

Variants of: B1
Assay: protein stability index of a GFP-peptide fusion (GPS, HEK-293T) (PSI 1-6); higher = more stable
Details: c terminus: a fixed tail appended
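Note: lentivirally expressed fusions sorted by FACS into six bins by GFP to DsRed ratio, PSI derived from sequencing read proportions per bin multiplied by bin number.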

Variant	protein stability index
YQSGGRLKRPVNVVFDIFTEEVKF	1.56
YQSGGRLKRPVNVTFDIFTEEVKF	1.51
YQSGGRLKRPVNVQFDIFTEEVKF	3.33
YQSGGRLKRPVNVCFDIFTEEVKF	2.19
YQSGGRLKRPVNVLFDIFTEEVKF	1.91
YQSGGRLKRPVNVHFDIFTEEVKF	1.86
YQSGGRLKRPVNVYFDIFTEEVKF	2.7
YQSGGRLKRPVNVNFDIFTEEVKF	2.07
YQSGGRLKRPVNVSFDIFTEEVKF	1.9
YQSGGRLKRPVNVGFDIFTEEVKF	2.98
YQSGGRLKRPVNVAFDIFTEEVKF	1.37
YQSGGRLKRPVNVDFDIFTEEVKF	2.28
YQSGGRLKRPVNVRFDIFTEEVKF	2.19
YQSGGRLKRPVNVEFDIFTEEVKF	1.42
YQSGGRLKRPVNVIFDIFTEEVKF	3
YQSGGRLKRPVNVKFDIFTEEVKF	1.71
YQSGGTLKRPVNVPFDIFTEEVKF	2.5
YQSGGELKRPVNVPFDIFTEEVKF	1.63
YQSGGVLKRPVNVPFDIFTEEVKF	1.77
YQSGGQLKRPVNVPFDIFTEEVKF	2.15
YQSGGMLKRPVNVPFDIFTEEVKF	1.47
YQSGGPLKRPVNVPFDIFTEEVKF	1.85
YQSGGYLKRPVNVPFDIFTEEVKF	2.51
YQSGGALKRPVNVPFDIFTEEVKF	2.19

Variant	protein stability index
YQSGGGLKRPVNVPFDIFTEEVKF	1.71
YQSGGLLKRPVNVPFDIFTEEVKF	1.51
YQSGGKLKRPVNVPFDIFTEEVKF	1.94
YQSGGSLKRPVNVPFDIFTEEVKF	1.45
YQSGGILKRPVNVPFDIFTEEVKF	1.63
YQSGGCLKRPVNVPFDIFTEEVKF	1.26
YQSGGHLKRPVNVPFDIFTEEVKF	2.14
YQSGGNLKRPVNVPFDIFTEEVKF	2.16
YQSGGDLKRPVNVPFDIFTEEVKF	2.23
YQSGGRLKRPVMVPFDIFTEEVKF	2.13
YQSGGRLKRPVVVPFDIFTEEVKF	1.54
YQSGGRLKRPVKVPFDIFTEEVKF	3.14
YQSGGRLKRPVCVPFDIFTEEVKF	1.8
YQSGGRLKRPVDVPFDIFTEEVKF	2.38
YQSGGRLKRPVFVPFDIFTEEVKF	2.5
YQSGGRLKRPVIVPFDIFTEEVKF	1.44
YQSGGRLKRPVSVPFDIFTEEVKF	2.96
YQSGGRLKRPVPVPFDIFTEEVKF	1.55
YQSGGRLKRPVYVPFDIFTEEVKF	1.55
YQSGGRLKRPVHVPFDIFTEEVKF	1.91
YQSGGRLKRPVAVPFDIFTEEVKF	1.65
YQSGGRLKRPVEVPFDIFTEEVKF	1.22
YQSGGRLKRPVLVPFDIFTEEVKF	2.43
YQSGGRLKRPVTVPFDIFTEEVKF	2.07

Variant	protein stability index
YQSGGRLKLPVNVPFDIFTEEVKF	2.11
YQSGGRLKHPVNVPFDIFTEEVKF	2.02
YQSGGRLKFPVNVPFDIFTEEVKF	1.58
YQSGGRLKVPVNVPFDIFTEEVKF	1.69
YQSGGRLKAPVNVPFDIFTEEVKF	2.04
YQSGGRLKQPVNVPFDIFTEEVKF	2.34
YQSGGRLKDPVNVPFDIFTEEVKF	1.99
YQSGGRLKYPVNVPFDIFTEEVKF	2.38
YQSGGRLKGPVNVPFDIFTEEVKF	2.31
YQSGGRLKNPVNVPFDIFTEEVKF	2.07
YQSGGRLKWPVNVPFDIFTEEVKF	3.37
YQSGGRLKCPVNVPFDIFTEEVKF	1.63
YQSGGRLKEPVNVPFDIFTEEVKF	2.06
YQSGGRLKMPVNVPFDIFTEEVKF	1.46
YQSGGRLKIPVNVPFDIFTEEVKF	1.65
YQSGGRLKSPVNVPFDIFTEEVKF	2.1
YQSGGRLKPPVNVPFDIFTEEVKF	1.72
YQSGGRLKTPVNVPFDIFTEEVKF	1.7
YQSGGRLKKPVNVPFDIFTEEVKF	1.83
YQSGGRLKRPVNVPFDAFTEEVKF	1.64
YQSGGRLKRPVNVPFDLFTEEVKF	2.36
YQSGGRLKRPVNVPFDGFTEEVKF	1.91
YQSGGRLKRPVNVPFDHFTEEVKF	1.98
YQSGGRLKRPVNVPFDKFTEEVKF	2.04

Variant	protein stability index
YQSGGRLKRPVNVPFDPFTEEVKF	1.85
YQSGGRLKRPVNVPFDDFTEEVKF	2.83
YQSGGRLKRPVNVPFDFFTEEVKF	2.25
YQSGGRLKRPVNVPFDMFTEEVKF	1.91
YQSGGRLKRPVNVPFDCFTEEVKF	3.62
YQSGGRLKRPVNVPFDEFTEEVKF	2.15
YQSGGRLKRPVNVPFMIFTEEVKF	1.54
YQSGGRLKRPVNVPFVIFTEEVKF	1.55
YQSGGRLKRPVNVPFSIFTEEVKF	1.21
YQSGGRLKRPVNVPFKIFTEEVKF	1.57
YQSGGRLKRPVNVPFPIFTEEVKF	1.52
YQSGGRLKRPVNVPFTIFTEEVKF	1.29
YQSGGRLKRPVNVPFNIFTEEVKF	2.03
YQSGGRLKRPVNVPFYIFTEEVKF	2.11
YQSGGRLKRPVNVPFLIFTEEVKF	1.85
YQSGGRLKRPVNVPFAIFTEEVKF	1.83
YQSGGRLKRPVNVPFCIFTEEVKF	1.1
YQSGGRLKRPVNVPFWIFTEEVKF	2.98
YQSGGRLKRPVNVPFHIFTEEVKF	1.08
YQSGGRLKRPVNVPFEIFTEEVKF	2.08
YQSGGRLKRPVNVPFRIFTEEVKF	2.48
YQSGGRLKRPVNFPFDIFTEEVKF	1.52
YQSGGRLKRPVNHPFDIFTEEVKF	1.91
YQSGGRLKRPVNMPFDIFTEEVKF	1.61

Variant	protein stability index
YQSGGRLKRPVNLPFDIFTEEVKF	1.78
YQSGGRLKRPVNCPFDIFTEEVKF	2.18
YQSGGRLKRPVNRPFDIFTEEVKF	2.25
YQSGGRLKRPVNYPFDIFTEEVKF	1.88
YQSGGRLKRPVNKPFDIFTEEVKF	2
YQSGGRLKRPVNQPFDIFTEEVKF	1.66
YQSGGRLKRPVNAPFDIFTEEVKF	1.47
YQSGGRLKRPVNIPFDIFTEEVKF	1.75
YQSGGRLKRPVNDPFDIFTEEVKF	1.55
YQSGGRLKRPVNTPFDIFTEEVKF	1.51
YQSGGRLKRPVNPPFDIFTEEVKF	1.53
YQSGGRLKRPVNNPFDIFTEEVKF	1.2
YQSGGRLKRPVNVPEDIFTEEVKF	2.75
YQSGGRLKRPVNVPPDIFTEEVKF	2.01
YQSGGRLKRPVNVPTDIFTEEVKF	2.22
YQSGGRLKRPVNVPYDIFTEEVKF	1.56
YQSGGRLKRPVNVPRDIFTEEVKF	2.83
YQSGGRLKRPVNVPCDIFTEEVKF	2.41
YQSGGRLKRPVNVPWDIFTEEVKF	2.12
YQSGGRLKRPVNVPMDIFTEEVKF	3
YQSGGRLKRPVNVPLDIFTEEVKF	2.15
YQSGGRLKRPVNVPIDIFTEEVKF	2.45
YQSGGRLKRPVNVPNDIFTEEVKF	1.88
YQSGGRLKRPVNVPHDIFTEEVKF	2.47

Variant	protein stability index
YQSGGRLKRPVNVPKDIFTEEVKF	2.1
YQSGGRLKRPVNVPDDIFTEEVKF	2.6
YQSGGRLKRPVNVPSDIFTEEVKF	1.94
YQSGGRLKRPVNVPGDIFTEEVKF	1.98
YQSGGRLKRIVNVPFDIFTEEVKF	1.72
YQSGGRLKREVNVPFDIFTEEVKF	1.78
YQSGGRLKRVVNVPFDIFTEEVKF	2.31
YQSGGRLKRNVNVPFDIFTEEVKF	1.94
YQSGGRLKRFVNVPFDIFTEEVKF	2.76
YQSGGRLKRRVNVPFDIFTEEVKF	1.01
YQSGGRLKRDVNVPFDIFTEEVKF	1.38
YQSGGRLKRAVNVPFDIFTEEVKF	2.16
YQSGGRLKRKVNVPFDIFTEEVKF	1.4
YQSGGRLKRYVNVPFDIFTEEVKF	1.93
YQSGGRLKRMVNVPFDIFTEEVKF	1.4
YQSGGRLKRSVNVPFDIFTEEVKF	1.97
YQSGGRLKRWVNVPFDIFTEEVKF	1.14
YQSGGRLKRQVNVPFDIFTEEVKF	2.2
YQSGGRLKRHVNVPFDIFTEEVKF	1.93
YQSGGRLKRGVNVPFDIFTEEVKF	1.53
YQSGGRLKRTVNVPFDIFTEEVKF	1.79
YQSGGRLKRPNNVPFDIFTEEVKF	2.74
YQSGGRLKRPLNVPFDIFTEEVKF	1.95
YQSGGRLKRPENVPFDIFTEEVKF	1.65

Variant	protein stability index
YQSGGRLKRPANVPFDIFTEEVKF	2.07
YQSGGRLKRPDNVPFDIFTEEVKF	1.91
YQSGGRLKRPMNVPFDIFTEEVKF	2.32
YQSGGRLKRPRNVPFDIFTEEVKF	1.81
YQSGGRLKRPTNVPFDIFTEEVKF	2.15
YQSGGRLKRPYNVPFDIFTEEVKF	2.06
YQSGGRLKRPFNVPFDIFTEEVKF	3.13
YQSGGRLKRPKNVPFDIFTEEVKF	1.39
YQSGGRLKRPHNVPFDIFTEEVKF	1.69
YQSGGRLKRPQNVPFDIFTEEVKF	2.36
YQSGGRLKRPPNVPFDIFTEEVKF	1.82
YQSGGRLKRPGNVPFDIFTEEVKF	1.31
YQSGGRLKRPINVPFDIFTEEVKF	2.3
YQSGWRLKRPVNVPFDIFTEEVKF	1.59
YQSGVRLKRPVNVPFDIFTEEVKF	1.63
YQSGYRLKRPVNVPFDIFTEEVKF	1.26
YQSGGRLQRPVNVPFDIFTEEVKF	2.56
YQSGGRLVRPVNVPFDIFTEEVKF	1.53
YQSGGRLNRPVNVPFDIFTEEVKF	2.23
YQSGGRLSRPVNVPFDIFTEEVKF	1.93
YQSGGRLRRPVNVPFDIFTEEVKF	2.67
YQSGGRLDRPVNVPFDIFTEEVKF	2.28
YQSGGRLPRPVNVPFDIFTEEVKF	1.7
YQSGGRLWRPVNVPFDIFTEEVKF	5.95

Variant	protein stability index
YQSGGRLERPVNVPFDIFTEEVKF	1.98
YQSGGRLIRPVNVPFDIFTEEVKF	2.47
YQSGGRVKRPVNVPFDIFTEEVKF	2.28
YQSGGREKRPVNVPFDIFTEEVKF	2.16
YQSGGRGKRPVNVPFDIFTEEVKF	1.84
YQSGGRWKRPVNVPFDIFTEEVKF	1.77
YQSGGRTKRPVNVPFDIFTEEVKF	2.15
YQSGGRCKRPVNVPFDIFTEEVKF	1.78
YQSGGRAKRPVNVPFDIFTEEVKF	1.71
YQSGGRFKRPVNVPFDIFTEEVKF	2.4
YQSGGRMKRPVNVPFDIFTEEVKF	1.56
YQSGGRQKRPVNVPFDIFTEEVKF	1.68
YQSGGRRKRPVNVPFDIFTEEVKF	1.7
YQSGGRNKRPVNVPFDIFTEEVKF	1.84
YQSGGRYKRPVNVPFDIFTEEVKF	1.86
YQSGGRSKRPVNVPFDIFTEEVKF	2.29
YQSGGRPKRPVNVPFDIFTEEVKF	1.99
YQSGGRHKRPVNVPFDIFTEEVKF	1.8
YQSGGRDKRPVNVPFDIFTEEVKF	1.95
YQSGGRKKRPVNVPFDIFTEEVKF	2.15
